# The RNAGym collection of RNA variant scans (doi:10.1073/pnas.2313332121)
# B1: TPR t1 (parent)
# chain: GACCAAUCUGCCCUCAGAGCUCGAGAACAUCUUCGGAUGCAGAGGAGGCAGGCUUCGGUGGCGCGAUAGCGCCAACGUCCUCAACCUCCAAUGCAUCCCACCACAUGAUGAUGCCUGAAGAGCCUUGGUUUUUUG
# Variants of: B1
# Test: polymerase ribozyme fitness, log enrichment relative to wild type (log ratio); higher = more active; in vitro selection for triplet polymerase activity
# Method in brief: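 Mutant libraries for each subunit of a heterodimeric triplet polymerase ribozyme were made by PCR and then transcribed. Each library underwent one round of in vitro selection in triplicate: annealing with a biotinylated primer, the partner subunit and triplets, frozen incubation at −7 °C, gel excision of extended constructs, streptavidin-bead capture and RT-PCR. Input and output libraries were Illumina-sequenced, and only genotypes with ≥10 input reads and ≥1 read per output were kept. Fitness is the logarithm, base 2, of genotype enrichment over wild-type enrichment, computed from inverse-variance-weighted replicate averages.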
row,Variant,polymerase ribozyme fitness (log ratio)
1,A43U A46U C56A,-2.93
2,A43U U59A G60U,-1.17
3,A43U A46G C53G U87C C115U,-2.37
4,G44A C70G C101G C114U G128C,-6.56
5,A43U G113C,-3.56
6,A43U G69C C115A C124U,-3.09
7,A43G G52U,-2.44
8,A43C G47U C53U C88G C104U,-6.05
9,G44A C72G U96G,-2.52
10,G44A C53U U125G,-2.16
11,A43C G93C U130A,-3.38
12,A43C G47U U112A G135A,-1.87
13,A43U U55A C70G U112A G113A,-3.91
14,A43C U59G U78C A111U,-5.7
15,A43U G44C G45A A83C G110A,-6.81
16,A43U U78G C85U G93A,-3.01
17,A43U G57U C86A,-2.97
18,G44A G51U A68G A121G,-5.63
19,G44C A46U G58A G63U G117A U130G,-6.42
20,A43U A66C G71U,-5.02
21,A43U C70G G117A,-6.87

row,Variant,polymerase ribozyme fitness (log ratio)
1,A43U C72A,-1.26
2,G44A G51U A121G,-3.43
3,A43U C88A U109A,-6.37
4,A43G G44U G48A U78C C124A,0.343
5,A43U C73U U92G G113A,-2.84
6,A43G A118G,-1.54
7,G44A G57U C85U C104A U109A G120C,-4.62
8,A43U G52C C72U,-2.16
9,A43U G48C G57A C89U U106C,-2.94
10,A43U U59C,-1.99
11,A43G C53A U78C C88U,-1.22
12,G44A C64A C76A,-6.8
13,G44A G60A A121C G122U,-1.92
14,A43U U59A A66U,-4.54
15,A43U U92A U106A,-2.69
16,G44A C49U G117C U133G,-5.23
17,G44A G60A A68G C85U U106A U129C,-5.96
18,A43G C72G,-1.52
19,A43G C72U,-0.99
20,A43U C79U,-0.702
21,A43G C97U,-1.61

row,Variant,polymerase ribozyme fitness (log ratio)
1,G44A G93A,-1.2
2,G44A G93C,-2.23
3,A43U G45A G58C,-1.24
4,A43U A46U G47U G117U,-7.8
5,G44C A74C A111C,-0.547
6,G44C C56G G69U,-2.28
7,G44A A111U U132A,-3.18
8,A43G C49G C98U G120C,-3.88
9,G44A G58U U81A,-1.79
10,A43G G45U C72G,-2.45
11,A43C G61U G117A,-3.52
12,A43U G45A U96A A108G C123G,-4.02
13,G44A A84U,-0.594
14,A43G C53G,-2.54
15,A43G A46U U112G,-3.43
16,A43G G107U G110C A118U C124A,-7.12
17,G44A C72A,-0.836
18,G44A C101G U133C,-2.92
19,G44A A66G U133G,-2.29
20,A43C G60U U133G,-2
21,A43U U112G,-1.93

row,Variant,polymerase ribozyme fitness (log ratio)
1,A43U U112A,-0.216
2,A43U U87G C102U,-5.04
3,A43C U54C G58A C86A,-3.78
4,G44A C72G C123A,-1.13
5,A43U G93A A119C G120A,-2.58
6,A43C G61U C85U,-2.37
7,A43G C56G G69U A108G C124A,-2.3
8,G44A C64U G128C U132C,-2.96
9,A43C C115G,-3.94
10,G44A G117U,-3.1
11,A43C C70G A111U,-5.68
12,G44A G51C C62G C85G G110C,-7.25
13,A43U A121G,1.17
14,G44A G113C,-3.16
15,A43C G44C A118U U133G,-1.11
16,A43G G63A,-3.39
17,G44A U92G,-3.27
18,G44A C72U A84U,-1.47
19,A43U G63U,-3.68
20,G44A G69U C104A,-1.28
